# From doi:10.1101/2022.09.22.509106 (bioRxiv, 2022)
# B1: Rat Nptx2 pentraxin domain (X2-PD) (domain or fragment, UniProt P97738 224-425, looked up)
# chain: DAFKVSLPLRTNYLYGKIKKTLPELYAFTICLWLRSSASPGIGTPFSYAVPGQANEIVLIEWGNNPIELLINDKVAQLPLFVSDGKWHHICITWTTRDGMWEAFQDGEKLGTGENLAPWHPIKPGGVLILGQEQDTVGGRFDATQAFVGELSQFNIWDRVLRAQEIINIANCSTNMPGNIIPWVDNNVDVFGGASKWPVETC
# B2: Nptxr and Nptx2 co-expressed on a stable tetracycline-inducible CHO cell-line (Nptxr/x2) (complex, human)
# chain 1: MKFLAVLLAAGMLAFLGAVICIIASVPLAASPARALPGGADNASVASGAAASPGPQRSLSALHGAGGSAGPPALPGAPAASAHPLPPGPLFSRFLCTPLAAACPSGAQQGDAAGAAPGEREELLLLQSTAEQLRQTALQQEARIRADQDTIRELTGKLGRCESGLPRGLQGAGPRRDTMADGPWDSPALILELEDAVRALRDRIDRLEQELPARVNLSAAPAPVSAVPTGLHSKMDQLEGQLLAQVLALEKERVALSHSSRRQRQEVEKELDVLQGRVAELEHGSSAYSPPDAFKISIPIRNNYMYARVRKALPELYAFTACMWLRSRSSGTGQGTPFSYSVPGQANEIVLLEAGHEPMELLINDKVAQLPLSLKDNGWHHICIAWTTRDGLWSAYQDGELQGSGENLAAWHPIKPHGILILGQEQDTLGGRFDATQAFVGDIAQFNLWDHALTPAQVLGIANCTAPLLGNVLPWEDKLVEAFGGATKAAFDVCKGRAKA
# chain 2: GAQDSPAPGSRFVCTALPPEAVHAGCPLPAMPMQGGAQSPEEELRAAVLQLRETVVQQKETLGAQREAIRELTGKLARCEGLAGGKARGAGATGKDTMGDLPRDPGHVVEQLSRSLQTLKDRLESLEHQLRANVSNAGLPGDFREVLQQRLGELERQLLRKVAELEDEKSLLHNETSAHRQKTESTLNALLQRVTELERGNSAFKSPDAFKVSLPLRTNYLYGKIKKTLPELYAFTICLWLRSSASPGIGTPFSYAVPGQANEIVLIEWGNNPIELLINDKVAQLPLFVSDGKWHHICVTWTTRDGMWEAFQDGEKLGTGENLAPWHPIKPGGVLILGQEQDTVGGRFDATQAFVGELSQFNIWDRVLRAQEIVNIANCSTNMPGNIIPWVDNNVDVFGGASKWPVETCEERLLDL
# B3: neuronal pentraxin 2 (Nptx2), purified recombinant, His-tagged (natural protein, UniProt P47972 16-431, looked up)
# chain: GAQDSPAPGSRFVCTALPPEAVHAGCPLPAMPMQGGAQSPEEELRAAVLQLRETVVQQKETLGAQREAIRELTGKLARCEGLAGGKARGAGATGKDTMGDLPRDPGHVVEQLSRSLQTLKDRLESLEHQLRANVSNAGLPGDFREVLQQRLGELERQLLRKVAELEDEKSLLHNETSAHRQKTESTLNALLQRVTELERGNSAFKSPDAFKVSLPLRTNYLYGKIKKTLPELYAFTICLWLRSSASPGIGTPFSYAVPGQANEIVLIEWGNNPIELLINDKVAQLPLFVSDGKWHHICVTWTTRDGMWEAFQDGEKLGTGENLAPWHPIKPGGVLILGQEQDTVGGRFDATQAFVGELSQFNIWDRVLRAQEIVNIANCSTNMPGNIIPWVDNNVDVFGGASKWPVETCEERLLDL
# What was measured:
# [1] = target: T1, purified human C1q protein (human, UniProt P02745 23-245; P02746 28-253; P02747 29-245); test: pull-down
# [2] = target: T1, purified human C1q protein; test: immunostaining of cells or tissue
# [3] = target: the molecule itself; test: negative staining electron microscopy
# T1 sequence (P02745 23-245, chain 1 of 3): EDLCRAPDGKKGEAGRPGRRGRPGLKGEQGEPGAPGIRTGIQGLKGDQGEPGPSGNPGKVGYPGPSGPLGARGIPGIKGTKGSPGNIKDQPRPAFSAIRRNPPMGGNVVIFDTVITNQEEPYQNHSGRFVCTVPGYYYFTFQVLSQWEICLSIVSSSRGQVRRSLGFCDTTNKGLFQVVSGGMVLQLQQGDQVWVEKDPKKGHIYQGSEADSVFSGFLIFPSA
# T1 sequence (P02746 28-253, chain 2 of 3): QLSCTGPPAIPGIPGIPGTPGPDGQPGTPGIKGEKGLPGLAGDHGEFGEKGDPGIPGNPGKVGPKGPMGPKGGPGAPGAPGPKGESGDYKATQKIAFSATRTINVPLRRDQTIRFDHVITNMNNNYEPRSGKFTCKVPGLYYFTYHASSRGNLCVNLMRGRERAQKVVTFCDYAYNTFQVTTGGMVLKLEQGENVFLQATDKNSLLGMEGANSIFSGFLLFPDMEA
# T1 sequence (P02747 29-245, chain 3 of 3): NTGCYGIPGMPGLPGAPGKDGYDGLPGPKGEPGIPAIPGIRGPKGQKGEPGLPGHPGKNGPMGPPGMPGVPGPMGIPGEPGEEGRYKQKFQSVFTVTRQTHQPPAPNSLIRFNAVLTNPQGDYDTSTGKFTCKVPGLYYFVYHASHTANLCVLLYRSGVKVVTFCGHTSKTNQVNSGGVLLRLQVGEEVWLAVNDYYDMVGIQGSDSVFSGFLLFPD
binder,measurement,setting,value
B1,binding result,[1],binds
B2,Kd,[2],~2 nM
B3,stoichiometry N,[3],6
